Measurements: patent US8440788B2, “N-terminal VDAC variants and uses thereof” (Ben-Gurion University of The Negev Research and Development …, priority 2006, dated 2013)

Legend:
[1] = test system: hVDAC1-shRNA-T-REx-293 cells; assay: Apoptosis induced by various stimuli in cells expressing native or truncated mVDAC1; type: cell-based, human; settings: for cell death in cells expressing native mVDAC1: hVDAC1-shRNA-T-REx-293 cells expressing mVDAC1
Method: (§1) Apoptotic cell death was analyzed by Acridine Orange/Ethidium Bromide staining.
(§2) T-REx-293 cells correspond to a transformed primary human embryonal kidney cell line, expressing the tetracycline repressor. hVDAC1-shRNA T-REx-293 cells stably expressing the pSUPERretro plasmid encoding shRNA targeting hVDAC1 were obtained and grown as described previously (Abu-Hamad et al. (2006), supra). […] Cell viability was analyzed by staining with acridine orange and ethidium bromide in PBS (Zaid et al. (2005). Cell death and differentiation, 12, 751-760). Images were recorded using Zeiss LSM510 confocal or Olympus IX51 fluorescence microscopes. Mitochondria preparation and measurements of ATP levels and Ca^+ accumulation were carried out as previously described (Abu-Hamad et al. (2006), supra).

[2] = target: T1, HK-I (Rattus norvegicus, UniProt P05708); assay: Real time surface plasmon resonance, immobilized HK-I; type: binding; settings: SPR, increasing peptide concentrations
T1 construct: Purified rat brain HK-I; from tissue; host or cells: rat brain
T1 sequence (P05708 1-918): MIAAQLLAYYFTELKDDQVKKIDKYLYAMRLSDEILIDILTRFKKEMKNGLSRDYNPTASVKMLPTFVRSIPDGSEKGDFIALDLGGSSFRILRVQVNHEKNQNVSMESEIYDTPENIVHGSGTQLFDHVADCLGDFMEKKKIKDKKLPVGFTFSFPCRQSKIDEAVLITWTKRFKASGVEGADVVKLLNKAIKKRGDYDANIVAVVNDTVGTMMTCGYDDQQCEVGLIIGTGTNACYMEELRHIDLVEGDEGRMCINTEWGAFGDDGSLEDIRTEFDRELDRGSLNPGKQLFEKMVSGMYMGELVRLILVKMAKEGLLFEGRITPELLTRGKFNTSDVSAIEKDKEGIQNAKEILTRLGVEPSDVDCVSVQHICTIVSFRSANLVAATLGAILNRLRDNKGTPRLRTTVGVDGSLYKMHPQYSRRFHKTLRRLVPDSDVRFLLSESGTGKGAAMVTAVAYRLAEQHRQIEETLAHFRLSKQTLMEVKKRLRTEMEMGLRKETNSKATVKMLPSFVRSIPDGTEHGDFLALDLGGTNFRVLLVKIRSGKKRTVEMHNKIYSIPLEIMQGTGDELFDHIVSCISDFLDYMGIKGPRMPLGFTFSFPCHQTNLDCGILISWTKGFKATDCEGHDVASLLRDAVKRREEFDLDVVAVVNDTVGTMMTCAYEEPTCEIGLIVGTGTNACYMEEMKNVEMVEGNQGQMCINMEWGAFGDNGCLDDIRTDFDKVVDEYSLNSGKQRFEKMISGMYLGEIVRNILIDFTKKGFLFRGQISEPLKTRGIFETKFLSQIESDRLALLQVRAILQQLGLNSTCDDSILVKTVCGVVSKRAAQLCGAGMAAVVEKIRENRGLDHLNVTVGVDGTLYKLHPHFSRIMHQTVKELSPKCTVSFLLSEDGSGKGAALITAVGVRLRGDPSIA
Method: (§3) Surface plasmon resonance (SPR) using the ProteOn-XPR36 (Bio-Rad, USA) system was employed to study the interaction of VDAC1 N-terminal peptides with purified HK-I and Bcl2. Purified rat brain HK-I, recombinant Bcl2 and rabbit IgG were immobilized on a CM5 sensor surface according to the manufacture's instructions. N-terminal VDAC1 peptides were diluted in running buffer (150 mM NaCl, 0.005% Tween-20, 4% (V/V) DMSO, 10 mM PBS, pH, 7.4) and injected onto the sensor chip at varying concentrations at a flow rate of 40 μl/min at 25° C.

[3] = target: Bcl2 (Homo sapiens, UniProt P10415); assay: Real time surface plasmon resonance, immobilized Bcl2; type: binding; settings: SPR, increasing peptide concentrations
Method: as §3

[4] = test system: IgG; assay: Real time surface plasmon resonance, immobilized IgG (control); type: binding, rabbit; settings: SPR control
Method: as §3

[5] = test system: hVDAC1-shRNA-T-REx-293 cells; assay: Restoration of cell growth in T-REx-293 cells silenced for hVDAC1; type: cell-based, human; settings: expression under tetracycline control; Trypan-Blue counting
Method: as §2

[6] = Channel conductance of purified VDAC reconstituted into planar lipid bilayer; type: biochemical
Method: (§4) Briefly, PLB were prepared from soybean asolectin dissolved in n-decane (50 mg/ml) in a chamber containing 10 mM Hepes/KOH, pH 7.4 and 0.5 or 1M NaCl (cis/trans). Only PLBs with a resistance greater than 100 GΩ were used. Purified VDAC (about 1 ng) was added to the chamber defined as the cis side. After insertion of one or more channels into the PLB, excess protein was removed by perfusion of the cis chamber with 20 volumes of a same solution. Currents were recorded under voltage-clamp mode using a Bilayer Clamp amplifier (Warner Instruments, Hamden, Conn.). Currents were measured with respect to the trans side of the membrane (ground). The currents were low-pass filtered at 1 kHz, using a Bessal filter (Frequency Devices, Haverhill, Mass.) and digitized on-line using a Digidata 1200 interface board and pCLAMP 6 software (Axon Instruments). Sigma Plot 2000 scientific software was used for data analyses. Experiments were performed at 23-25° C.

[7] = test system: T-REx-293 cells silenced for hVDAC1 expression; assay: Cell death triggered by tetracycline-induced over-expression; type: cell-based, human; settings: over-expression induced by 2.5 μg/ml tetracycline
Method: as §1, §2

[8] = test system: hVDAC1-shRNA T-REx-293 cells; assay: Cytochrome c release induced by staurosporine (STS); type: cell-based, human; settings: STS (1.25 μM) for 5 h; Western blotting
Method: Seventy-two hours later, cells were exposed to STS (1.25 μM) for 5 h. Cells were harvested, washed twice with PBS, incubated on ice for 1 h in extraction buffer (200 mM manitol, 70 mM sucrose, 1 mM EGTA, 1 mM EDTA, 10 μg/ml leupeptine, 1 mM PMSF, 1 mg/ml BSA, 10 mM HEPES, pH 7.5) and then lysed with a Dounce homogenizer by 25 strokes. Homogenates were centrifuged (1000×g) at 4° C. for 10 min and the supernatants were re-centrifuged at 15,000×g for 30 min at 4° C. Aliquots (10 μl) of the resultant supernatants, designated as the cytosolic fraction, were immediately boiled in SDS-PAGE sample buffer and resolved by SDS-PAGE on Tris-Tricine gels (13% polyacrylamide) and immunoblotted using monoclonal anti-cytochrome c antibodies. To rule out mitochondrial contamination of the cytosolic fraction, the presence of VDAC was tested by immunoblotting. Although supernatants from the different treated cultures were derived from equal number of cells, protein concentration in the total cells lysates were estimated as well as, actin levels were analyzed by immunoblotting using anti-actin antibodies.

[9] = target: T1, HK-I; assay: Effect of HK-I on channel activity of bilayer-reconstituted VDAC1; type: biochemical; settings: HK-I (28 mU/ml), voltage step 0 to +40 mV
Method: as §4

Sequence of Bcl2 (P10415 whole entry, species assumed): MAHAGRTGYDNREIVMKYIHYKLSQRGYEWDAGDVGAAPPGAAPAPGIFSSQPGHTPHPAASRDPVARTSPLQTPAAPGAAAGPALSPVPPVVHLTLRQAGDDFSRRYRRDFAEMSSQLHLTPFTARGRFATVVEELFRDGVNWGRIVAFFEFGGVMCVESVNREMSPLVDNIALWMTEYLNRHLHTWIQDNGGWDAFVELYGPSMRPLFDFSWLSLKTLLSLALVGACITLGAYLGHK

## O=[As]O[As]=O (stereo not shown) [As2O3]
[1]
  cell death in cells expressing native mVDAC1: induced death

## CN[C@@H]1C[C@H]2O[C@@](C)([C@@H]1OC)n1c3ccccc3c3c4c(c5c6ccccc6n2c5c31)C(=O)NC4 [Staurosporine]
[1]
  cell death in cells expressing native mVDAC1: induced death

## COc1cc(/C=C/C(=O)CC(=O)/C=C/c2ccc(O)c(OC)c2)ccc1O [curcumin]
[1]
  cell death in cells expressing native mVDAC1: induced death

## LP3: VDAC1-based peptide representing a loop (E157 to T174, 18 amino acids) predicted to face the intermembranal space (ETAKSRVTQSNFAVGYKT)
[2]
  binding to immobilized HK-I: did not interact
[3]
  binding to immobilized Bcl2: did not interact

## VDAC1 N-terminal peptide: a peptide corresponding to the N-terminal region of VDAC1 (MAVPPTYADLGKSARDVFTKGYGFGL)
[2]
  binding to immobilized HK-I: strongly bound
[3]
  binding to immobilized Bcl2: strongly bound
[4]
  binding to IgG-immobilized chip: no signal

B1: Δ(1-26)mVDAC1: N-terminal truncated mouse VDAC1 polypeptide lacking amino acids 1-26 (protein)
chain: IKLDLKTKSENGLEFTSSGSANTETTKVNGSLETKYRWTEYGLTFTEKWNTDNTLGTEITVEDQLARGLKLTFDSSFSPNTGKKNAKIKTGYKREHINLGCDVDFDIAGPSIRGALVLGYEGWLAGYQMNFETSKSRVTQSNFAVGYKTDEFQLHTNVNDGTEFGGSIYQKVNKKLETAVNLAWTAGNSNTRFGIAAKYQVDPDACFSAKVNNSSLIGLGYTQTLKPGIKLTLSALLDGKNVNAGGHKLGLGLEFQA
[5]
  cell growth in cells silenced for hVDAC1: restored cell growth
[6]; at 1M NaCl
  maximal conductance: 4 nS
[6]; planar lipid bilayer, FIG. 4
  voltage dependence of conductance: no voltage dependence
[7]
  cell death on over-expression: continue to grow over 8 days
[7]; over 8 days
  apoptotic cell death: 5-8%
[1]; curcumin (100 μM), As2O3 (60 μM) or STS (1.25 μM)
  sensitivity of expressing cells to induced apoptosis: resistant
[8]
  cytochrome c release into the cytosol: no cytochrome c release
[9]
  effect of HK-I on channel activity: no effect
